Results taken from article PMC5080453 (2016).

Molecular target: BMPER_N (Homo sapiens (Human), UniProt Q8N8U9)
Test: SPR (Tsg on chip); one cell MST

Sequence of BMPER_N (Q8N8U9 40-369): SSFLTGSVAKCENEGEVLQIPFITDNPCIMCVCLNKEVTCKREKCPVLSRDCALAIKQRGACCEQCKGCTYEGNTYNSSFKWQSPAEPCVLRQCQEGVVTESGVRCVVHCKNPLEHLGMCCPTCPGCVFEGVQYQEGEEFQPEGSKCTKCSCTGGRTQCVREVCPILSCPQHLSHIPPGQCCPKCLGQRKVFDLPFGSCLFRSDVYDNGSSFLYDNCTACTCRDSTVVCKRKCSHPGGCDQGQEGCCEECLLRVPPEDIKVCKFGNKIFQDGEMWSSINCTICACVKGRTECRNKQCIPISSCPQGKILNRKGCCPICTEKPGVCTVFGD

B1: TWSG1 (protein)
chain: CNKALCASDVSKCLIQELCQCRPGEGNCSCCKECMLCLGALWDECCDCVGMCNPRNYSDTPPTSKSTVEELHEPIPSLFRALTEGDTQLNWNIVSFPVAEELSHHENLVSFLETVNQPHHQNVSVPSNNVHAPYSSDKEHMCTVVYFDDCMSIHQCKISCESMGASKYRWFHNACCECIGPECIDYGSKTVKCMNCMF
Kd: 0.55 nM
